Key:
[1] = target: T1, mouse TrkB-ECD-GST (mouse, UniProt P15209 32-429); test: ELISA
T1 construct: extracellular domain; in-house fusion, HEK293; also called mTrkB-ECD-GST; mTrkB (ELISA); not shown: glutathione S-transferase (GST) fusion part

[2] = target: TrkB in PathHunter eXpress TrkB Functional Assay cells (modified U2OS); test: cell-based or functional assay
[3] = target: human TrkC-His (human, UniProt Q16288 32-429); test: ELISA
[4] = target: human TrkA-His (human, UniProt P04629 33-417, limits assumed); test: ELISA
Chain of human TrkA-His (P04629 33-417 limits assumed): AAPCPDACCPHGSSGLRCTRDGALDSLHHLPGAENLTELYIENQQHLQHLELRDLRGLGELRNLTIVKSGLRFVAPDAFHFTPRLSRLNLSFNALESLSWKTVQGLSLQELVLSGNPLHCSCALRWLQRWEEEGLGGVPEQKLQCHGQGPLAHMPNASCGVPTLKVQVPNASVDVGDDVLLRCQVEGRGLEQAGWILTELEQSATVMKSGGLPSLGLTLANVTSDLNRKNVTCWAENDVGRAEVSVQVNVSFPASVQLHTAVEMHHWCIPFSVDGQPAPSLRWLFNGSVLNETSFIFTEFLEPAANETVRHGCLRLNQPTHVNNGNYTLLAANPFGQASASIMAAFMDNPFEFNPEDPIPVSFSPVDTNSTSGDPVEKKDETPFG

[5] = target: T2, human TrkB-His (human, UniProt Q16620 32-430); test: BLI off-rate, mAb captured
T2 construct: in-house fusion of the TrkB ECD with poly-His, HEK293; also called huTrkB-His; hTrkB-His; not shown: poly-His tag

[6] = target: T2, human TrkB-His; test: ELISA

binding result [1]	TrkB activation (EC50) [2]	binding result [3]	binding result [4]	koff [5]	binding result [6]	Binder
binds	0.047 µg/mL	no binding (tested: up to 10 µg/mL)	no binding (tested: up to 10 µg/mL)	0.00318 s⁻¹	–	anti-TrkB clone 1E02 (antibody, V domains shown, full-length IgG) VH: QVQLLQSAAEVKKPGESLKISCKGSGYRFTSYWIGWVRQMPGKGLEWVGIIYPDDSDTRYSPSFQGQVTISADTSISTTYLQWSSLKASDTAIYYCASGEVAFDVWGQGTTVTVSS VL: QSVLTQPPSLSVSPRQTASITCSGDKLGDKFVSWYQQKPGQSPVLVIYQDTKRPSGIPERFSGSNSGNTATLTISGTQAMDEADYYCQAWDSSTGVFGGGTKLTVL
binds	0.08 µg/mL	no binding (tested: up to 10 µg/mL)	no binding (tested: up to 10 µg/mL)	0.00491 s⁻¹	–	anti-TrkB clone 5C01 (antibody, V domains shown, full-length IgG) VH: QMQLVQSGAEVKKPGESLKISCKGSGYSFTSYWIGWVRQMPGKGLEWLGIIYPGDSDTRYSPSFQGQVTISADKSISTAYLQWSSLKASDTAMYYCARLGQGSGPFDYWGQGTLVTVSS VL: QSVVTQPPSVSGTPGQRVSISCSGSSSNIGSHSVTWFQQLPGTAPKLLIYGNSQRPSGVPDRFSGSKSGTSASLAISGLQSEDEADYYCASWDDSLNGYVFGTGTKLTVL
–	–	–	–	–	binds	KiH.F5_TrkB × 8A05_CD3 (bispecific antibody, scFv-knob-Fc (IgG1 T366W/S354C) + Fab-hole-Fc (T366S/L368A/Y407V/Y349C); also called F5-8A05; F5_8A05) scFv: not shown VH: QVQLQQSGGGLVQSGGSLRLSCAASGFSFGSSAMSWVRQAPGRGLEWVSGISHSGSTTYYADSVKGRFTISRDNSKNTLYLQMNSLRVEDTAVYYCAKIGAYGYYFHYWGQGTLVTVSS VL: NFMLTQPHSVSESPGKTVTISCTRSGGSIASNYVQWYQQRPGSSPTTVIYDDNQRPSGVPDRFSGSIDSSSNSASLTISGLKTEDEADYYCQSSDNINHVIFGGGTKLTVL
–	–	–	–	–	binds	KiH.3H11_TrkB × 8A05_CD3 (bispecific antibody, scFv-knob-Fc (IgG1 T366W/S354C) + Fab-hole-Fc (T366S/L368A/Y407V/Y349C); also called 3H11-8A05) scFv: QVQLQQSGPGLVKPSQTLSLTCAISGDSVSSNSAVWNWIRQSPSRGLEWLGRTYYRSKWYTDFAVSVKSRITINPDTSKNQFSLQLNSVTPEDTAVYYCARGRNGMDVWGQGTMVTVSTSSGGGGSGGGGSGGSALLPVLTQPPSASGTPGQRVTISCSGSSSNIGHKYVYWYQQLPGAAPKLLIYRNNQRPSGVPDRFSASKSGTSASLAISGLRSEDEADYYCATWDDSLNGVVFGGGTKVTVL VH: QVQLQQSGGGLVQSGGSLRLSCAASGFSFGSSAMSWVRQAPGRGLEWVSGISHSGSTTYYADSVKGRFTISRDNSKNTLYLQMNSLRVEDTAVYYCAKIGAYGYYFHYWGQGTLVTVSS VL: NFMLTQPHSVSESPGKTVTISCTRSGGSIASNYVQWYQQRPGSSPTTVIYDDNQRPSGVPDRFSGSIDSSSNSASLTISGLKTEDEADYYCQSSDNINHVIFGGGTKLTVL
–	–	–	–	–	binds	KiH.3H11_TrkB × 3G07_CD3 (bispecific antibody, scFv-knob-Fc (IgG1 T366W/S354C) + Fab-hole-Fc (T366S/L368A/Y407V/Y349C); also called 3H11-3G07) scFv: QVQLQQSGPGLVKPSQTLSLTCAISGDSVSSNSAVWNWIRQSPSRGLEWLGRTYYRSKWYTDFAVSVKSRITINPDTSKNQFSLQLNSVTPEDTAVYYCARGRNGMDVWGQGTMVTVSTSSGGGGSGGGGSGGSALLPVLTQPPSASGTPGQRVTISCSGSSSNIGHKYVYWYQQLPGAAPKLLIYRNNQRPSGVPDRFSASKSGTSASLAISGLRSEDEADYYCATWDDSLNGVVFGGGTKVTVL VH: QVQLQQSGGGLVQPGGSLRLSCAASGFSFGSSAMSWVRQAPGRGLEWVSGISHSGSTTYYADSVKGRFTISRDNSKNTLYLQMNSLRVEDTAVYYCAKIGAYGYYFHYWGQGTLVTVSS VL: NFMLTQPHSLSESPGKTVTISCTRSSGSIASKYVQWYQQRPGSAPTTVIYDDKQRPSGVPDRFSGSFDSSSNSASLTISGLKTEDEADYYCQSFDSTNQAVVFGGGTKLTVL
–	–	–	–	–	binds	KiH.F5_TrkB × 3G07_CD3 (bispecific antibody, scFv-knob-Fc (IgG1 T366W/S354C) + Fab-hole-Fc (T366S/L368A/Y407V/Y349C); also called F5-3G07; F5_3G07) scFv: not shown VH: QVQLQQSGGGLVQPGGSLRLSCAASGFSFGSSAMSWVRQAPGRGLEWVSGISHSGSTTYYADSVKGRFTISRDNSKNTLYLQMNSLRVEDTAVYYCAKIGAYGYYFHYWGQGTLVTVSS VL: NFMLTQPHSLSESPGKTVTISCTRSSGSIASKYVQWYQQRPGSAPTTVIYDDKQRPSGVPDRFSGSFDSSSNSASLTISGLKTEDEADYYCQSFDSTNQAVVFGGGTKLTVL
binds	0.036 µg/mL	no binding (tested: up to 10 µg/mL)	no binding (tested: up to 10 µg/mL)	0.00399 s⁻¹	–	anti-TrkB clone 2C07 (antibody, V domains shown, full-length IgG) VH: QVQLQQSGGGVVQPGRSLRLSCAASGFTFSNYAMHWVRQAPGKGLEWVAVISYDGSNEYYADSVKGRFTISRDNSRNTLDLQMNSLRAEDTAVYYCARGTNYGMDVWGQGTMVTVSS VL: LSELTQDPAVSVALGQTVRITCQGDSLRSYYASWYQQKPGQAPVLVIYGKNNRPSGIPDRFSGSDSGKTASLTITGAQAEDEADYYCQSRDTTGNYLLFGGGTKLTVL
–	–	–	–	–	binds	KiH.F5_TrkB × 1A09_CD3 (bispecific antibody, scFv-knob-Fc (IgG1 T366W/S354C) + Fab-hole-Fc (T366S/L368A/Y407V/Y349C); also called F5×1A09; F5-1A09) scFv: not shown VH: EVQLVQSGGGLVKPGGSLRLSCAASGFTFSSYSMNWVRQAPGKGLEWVSSISSSSSYIYYADSVKGRFTISRDNSKNTLYLQMNSLRAEDTAVYYCARVKDYDSSLDYWGQGTLVTVSS VL: SYELMQPPSVSVSPGQTARITCSGFKLGDKYVSWYQQKPGQSPVLVIYQDSKRPSGIPERFSGSNSGNTATLTISGTQAMDEADYYCQAWDSSTVVFGGGTKLTVL
–	–	–	–	–	binds	KiH.3H11_TrkB × 1A09_CD3 (bispecific antibody, scFv-knob-Fc (IgG1 T366W/S354C) + Fab-hole-Fc (T366S/L368A/Y407V/Y349C); also called 3H11-1A09) scFv: QVQLQQSGPGLVKPSQTLSLTCAISGDSVSSNSAVWNWIRQSPSRGLEWLGRTYYRSKWYTDFAVSVKSRITINPDTSKNQFSLQLNSVTPEDTAVYYCARGRNGMDVWGQGTMVTVSTSSGGGGSGGGGSGGSALLPVLTQPPSASGTPGQRVTISCSGSSSNIGHKYVYWYQQLPGAAPKLLIYRNNQRPSGVPDRFSASKSGTSASLAISGLRSEDEADYYCATWDDSLNGVVFGGGTKVTVL VH: EVQLVQSGGGLVKPGGSLRLSCAASGFTFSSYSMNWVRQAPGKGLEWVSSISSSSSYIYYADSVKGRFTISRDNSKNTLYLQMNSLRAEDTAVYYCARVKDYDSSLDYWGQGTLVTVSS VL: SYELMQPPSVSVSPGQTARITCSGFKLGDKYVSWYQQKPGQSPVLVIYQDSKRPSGIPERFSGSNSGNTATLTISGTQAMDEADYYCQAWDSSTVVFGGGTKLTVL
binds	0.12 µg/mL	no binding (tested: up to 10 µg/mL)	no binding (tested: up to 10 µg/mL)	0.0113 s⁻¹	–	anti-TrkB clone 2E02 (antibody, V domains shown, full-length IgG) VH: QVQLQQSGPGLVKPSQTLSVTCVISGDSVSSKSAAWHWIRQSPSRGLEWLGRTYYRSKWYSDYGESVKSRVVINADTSNNQISLQLSSVTPEDTAAYYCARGIGSLNFDIWGQGTMVTVSS VL: QSVLTQPPSASGSPGQSVTISCTGTSGDVGGYNYVSWYQQHPGKAPKLILYEVTKRPSGVPDRFSGSKSGNTASLTVSGLQAEDEADYYCSSYGGPNNLVLFGGGTKVTVL
binds	0.51 µg/mL	no binding (tested: up to 10 µg/mL)	no binding (tested: up to 10 µg/mL)	0.011 s⁻¹	–	anti-TrkB clone 1F01 (antibody, V domains shown, full-length IgG) VH: QVQLQQSGPGLVKPAQTLSLTCDISGDSVSSKSAAWHWIRQSPSRGLEWLGRTYYRSKWYSDYGESVKSRVVINADTSNNQISLQLSSVTPEDTAAYYCARGIGSLNFDIWGQGTMVTVSS VL: QSVVTQPASVSGSPGQSITISCTGTSSDIGGYDYVSWYQQHPGKAPKLMIFDVSNRPSGVSNRFSGSKSGNTASLTISGLQADDEADYYCSSYRAGSTLNLLFGGGTKLTVL
binds	0.018 µg/mL	no binding (tested: up to 10 µg/mL)	no binding (tested: up to 10 µg/mL)	0.000586 s⁻¹	–	anti-TrkB clone 3C12 (antibody, V domains shown, full-length IgG) VH: QVQLVQSGAEVKKPGESLKISCKGSGYSFTSYWIGWVRQMPGKGLEWMGIIYPGDSDTRYSPSFQGQVTISADKSISTAYLQWSSLKASDTAMYYCTRSSFNDHWGQGTLVTVSS VL: QPVLTQPPSVSVSPGQTASITCSGDKLGNKFVSWFQQKPGQSPVLVIYQDTKRPSGIPERFSGSNSGSTATLTITGTQAMDDADYYCQAWNTNTALFGGGTKLTVL
binds	0.11 µg/mL	no binding (tested: up to 10 µg/mL)	no binding (tested: up to 10 µg/mL)	0.00687 s⁻¹	–	anti-TrkB clone 6B11 (antibody, V domains shown, full-length IgG) VH: QVQLQQSGAGLVKASQTLALTCAISGDSVSSNSAAWNWIRQSPSRGLEWLGRTYYRSKWYNDYAVSVKSRITINPDTSTNQFSLQLNSVTPEDTAVYYCTRGTGDKRAFDYWGQGTLVTVSS VL: QSVLTQPPSASGTPGQRVTISCSGSSSNIGSYFVSWYQQLPGTAPKLLIYRNDKRPSGVPERFSGSKSGTSASLAISGLQSEDEADYYCAAWDDSLSGRIFGGGTKLTVL
binds	0.07 µg/mL	no binding (tested: up to 10 µg/mL)	no binding (tested: up to 10 µg/mL)	0.00545 s⁻¹	–	anti-TrkB clone 4G12 (antibody, V domains shown, full-length IgG) VH: EVQLVQSGAEVKKPGESLKISCKGSGYSFTSYWIGWVRQMPGKGLEWMGIIYPGDSDTRYSPSFQGQVTISADKSISTAYLQWSSLKASDTAMYYCARHDYGMDVWGQGTTVTVSS VL: QSVLTQPPSVSVSPGQTASITCSGDKLGDKFASWYQQKPGQSPVLVIYQDNKRPSRVPERFSGSNSGNTATLTISETQAMDEADYYCQAWVNNTVVFGGGTKVTVL
binds	0.13 µg/mL	no binding (tested: up to 10 µg/mL)	no binding (tested: up to 10 µg/mL)	0.00544 s⁻¹	–	anti-TrkB clone 5A07 (antibody, V domains shown, full-length IgG) VH: QVQLVQSGAEVKKPGESLKISCKGSGYSFTSYWIGWVRQMPGKGLEWMGIIYPGDSDTRYSPSFQGQVTISADKSISTAYLQWSSLKASDTAMYYCARHDYGMDVWGQGTMVTVSS VL: LPVLTQPPSASGTPGQRVTISCSGSRSNVGGNTVSWYQQLPGSAPKLLIYTNNQRPSGVPDRFSGSKSGTSASLAISGLQSEDEADYYCAAWDDSLNGYVFGTGTQLTVL

Source: patent publication US20260092121A1 (TALEM THERAPEUTICS, published 2026)
